B1: RUNX3-WT duplex (dsDNA)
DNA 1: CCGGGCGCCGCCCCCTGCGCCCTGAGGCCC
DNA 2: GGGCCTCAGGGCGCAGGGGGCGGCGCCCGG
B2: GATA1-WT duplex (dsDNA)
DNA 1: ACACACCTGTAGTCCCAGCTACTCAGGAGG
DNA 2: CCTCCTGAGTAGCTGGGACTACAGGTGTGT
B3: GATA2-WT duplex (dsDNA)
DNA 1: CTTGGGCTTTCCTCCCACCCGGGACTGGTG
DNA 2: CACCAGTCCCGGGTGGGAGGAAAGCCCAAG
B4: SPI1-WT duplex (dsDNA)
DNA 1: AAGGGGACTATCTCCCAGCGGCAGGCCCTT
DNA 2: AAGGGCCTGCCGCTGGGAGATAGTCCCCTT

target: RIOK2 (rhRIOK2, full length) (Homo sapiens, UniProt Q9BVS4 SEQ:1-552); assay: EMSA; low-salt buffer, 4 C, protein:DNA 5:1; settings: tags: GST; Abcam
Method: Recombinant human GST-tagged RIOK2 (rhRIOK2, Abcam) was incubated with duplex DNA (Table 5) at 5:1 molar ratio in a low-salt buffer for 20-30 minutes at 4° C. and 2% agarose gel was cast and cooled to 4° C. The DNA-protein mixture was supplemented with 0.22p filtered 50% glycerol solution to facilitate loading. The gel was run for 1.5 hours at 4° C., followed by incubation in ethidium bromide solution for 30 minutes and visualized using ChemiDoc Touch Imaging system (Bio-Rad). ImageJ was used to quantify band shifts.

Chain of RIOK2 (rhRIOK2, full length) (Q9BVS4 whole entry): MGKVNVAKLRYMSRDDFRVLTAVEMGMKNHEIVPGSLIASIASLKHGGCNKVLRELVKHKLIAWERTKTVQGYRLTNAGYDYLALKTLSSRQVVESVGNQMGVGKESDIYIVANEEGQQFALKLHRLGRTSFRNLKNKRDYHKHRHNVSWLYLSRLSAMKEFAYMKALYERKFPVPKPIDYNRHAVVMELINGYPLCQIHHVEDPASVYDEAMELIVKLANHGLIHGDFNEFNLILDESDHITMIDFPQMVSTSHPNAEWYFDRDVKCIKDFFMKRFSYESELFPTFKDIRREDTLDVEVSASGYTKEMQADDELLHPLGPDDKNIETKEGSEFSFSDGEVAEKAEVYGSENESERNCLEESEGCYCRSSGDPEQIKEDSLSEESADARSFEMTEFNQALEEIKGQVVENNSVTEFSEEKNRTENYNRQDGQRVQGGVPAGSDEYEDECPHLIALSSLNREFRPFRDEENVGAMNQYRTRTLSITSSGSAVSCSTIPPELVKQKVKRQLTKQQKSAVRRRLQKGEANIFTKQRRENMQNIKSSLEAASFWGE

Binding result, binds:
B1
B2
B3
B4

— patent US20250381241, “METHODS AND COMPOSITIONS TO MODULATE RIOK2” (Dana-Farber Cancer Institute, Inc., published 2025)
